Ends that are not written are not given here.

As a reminder, the koff is the first-order rate constant of dissociation. Lower therefore signals a long-lived complex.

This assay deals with H2-D^b (mouse MHC I heavy chain ectodomain) refolded with human β2-microglobulin (mouse | human). The experiment in a line: FP.

Turning to ASNC(TAMRA)NMETM [ASNC*NMETM (fluorescently labeled high-affinity peptide for H2-D^b)], the koff worked out at 0.00035 s⁻¹.

For the origin of these results see publication PMC7117912 (2020).
